Assay results taken from US20260317437 (published 2026).

Target: GCGR extracellular domain (human, UniProt P47871)
Assay: SPR

Chain of GCGR extracellular domain (P47871 26-477): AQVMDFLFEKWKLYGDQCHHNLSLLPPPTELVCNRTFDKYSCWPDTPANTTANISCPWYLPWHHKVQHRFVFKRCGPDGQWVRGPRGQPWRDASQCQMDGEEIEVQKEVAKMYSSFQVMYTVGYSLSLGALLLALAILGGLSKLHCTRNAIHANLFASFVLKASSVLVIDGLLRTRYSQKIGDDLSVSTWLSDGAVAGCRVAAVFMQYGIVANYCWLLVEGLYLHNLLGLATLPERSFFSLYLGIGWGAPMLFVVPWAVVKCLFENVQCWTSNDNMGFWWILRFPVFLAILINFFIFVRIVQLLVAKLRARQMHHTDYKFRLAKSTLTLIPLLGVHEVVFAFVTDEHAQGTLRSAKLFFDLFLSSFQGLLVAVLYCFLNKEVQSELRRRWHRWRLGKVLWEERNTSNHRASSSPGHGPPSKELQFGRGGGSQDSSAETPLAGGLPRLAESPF

Row | Binder | Kd [nM]
1 | VH Y30Q (antibody, V domains shown) VH: EVQLVESGGGLVQPGGSLRLSCAASGFNIQYNYIHWVRQAPGKGLEWVAEFSPYSGSTYYADSVKGRFTISADTSKNTAYLQMNSLRAEDTAVYYCARSAAIVDWYDYFKGFDYWGQGTLVTVSS VL: DIQMTQSPSSLSASVGDRVTITCRASQSVSSAVAWYQQKPGKAPKLLIYSASSLYSGVPSRFSGSRSGTDFTLTISSLQPEDFATYYCQQYGSYLYTFGQGTKVEIK | 23.4
2 | VH Y30F (antibody, V domains shown) VH: EVQLVESGGGLVQPGGSLRLSCAASGFNIFYNYIHWVRQAPGKGLEWVAEFSPYSGSTYYADSVKGRFTISADTSKNTAYLQMNSLRAEDTAVYYCARSAAIVDWYDYFKGFDYWGQGTLVTVSS VL: DIQMTQSPSSLSASVGDRVTITCRASQSVSSAVAWYQQKPGKAPKLLIYSASSLYSGVPSRFSGSRSGTDFTLTISSLQPEDFATYYCQQYGSYLYTFGQGTKVEIK | 1.23
3 | VH Y100bV (antibody, V domains shown) VH: EVQLVESGGGLVQPGGSLRLSCAASGFNIYYNYIHWVRQAPGKGLEWVAEFSPYSGSTYYADSVKGRFTISADTSKNTAYLQMNSLRAEDTAVYYCARSAAIVDWVDYFKGFDYWGQGTLVTVSS VL: DIQMTQSPSSLSASVGDRVTITCRASQSVSSAVAWYQQKPGKAPKLLIYSASSLYSGVPSRFSGSRSGTDFTLTISSLQPEDFATYYCQQYGSYLYTFGQGTKVEIK | 1.08
4 | VH Y30W (antibody, V domains shown) VH: EVQLVESGGGLVQPGGSLRLSCAASGFNIWYNYIHWVRQAPGKGLEWVAEFSPYSGSTYYADSVKGRFTISADTSKNTAYLQMNSLRAEDTAVYYCARSAAIVDWYDYFKGFDYWGQGTLVTVSS VL: DIQMTQSPSSLSASVGDRVTITCRASQSVSSAVAWYQQKPGKAPKLLIYSASSLYSGVPSRFSGSRSGTDFTLTISSLQPEDFATYYCQQYGSYLYTFGQGTKVEIK | 6.44
5 | VH Y30K (antibody, V domains shown) VH: EVQLVESGGGLVQPGGSLRLSCAASGFNIKYNYIHWVRQAPGKGLEWVAEFSPYSGSTYYADSVKGRFTISADTSKNTAYLQMNSLRAEDTAVYYCARSAAIVDWYDYFKGFDYWGQGTLVTVSS VL: DIQMTQSPSSLSASVGDRVTITCRASQSVSSAVAWYQQKPGKAPKLLIYSASSLYSGVPSRFSGSRSGTDFTLTISSLQPEDFATYYCQQYGSYLYTFGQGTKVEIK | 363
6 | VH Y30V (antibody, V domains shown) VH: EVQLVESGGGLVQPGGSLRLSCAASGFNIVYNYIHWVRQAPGKGLEWVAEFSPYSGSTYYADSVKGRFTISADTSKNTAYLQMNSLRAEDTAVYYCARSAAIVDWYDYFKGFDYWGQGTLVTVSS VL: DIQMTQSPSSLSASVGDRVTITCRASQSVSSAVAWYQQKPGKAPKLLIYSASSLYSGVPSRFSGSRSGTDFTLTISSLQPEDFATYYCQQYGSYLYTFGQGTKVEIK | 6.68
7 | VH Y100bA (antibody, V domains shown) VH: EVQLVESGGGLVQPGGSLRLSCAASGFNIYYNYIHWVRQAPGKGLEWVAEFSPYSGSTYYADSVKGRFTISADTSKNTAYLQMNSLRAEDTAVYYCARSAAIVDWADYFKGFDYWGQGTLVTVSS VL: DIQMTQSPSSLSASVGDRVTITCRASQSVSSAVAWYQQKPGKAPKLLIYSASSLYSGVPSRFSGSRSGTDFTLTISSLQPEDFATYYCQQYGSYLYTFGQGTKVEIK | 3.54
8 | VH Y30R (antibody, V domains shown) VH: EVQLVESGGGLVQPGGSLRLSCAASGFNIRYNYIHWVRQAPGKGLEWVAEFSPYSGSTYYADSVKGRFTISADTSKNTAYLQMNSLRAEDTAVYYCARSAAIVDWYDYFKGFDYWGQGTLVTVSS VL: DIQMTQSPSSLSASVGDRVTITCRASQSVSSAVAWYQQKPGKAPKLLIYSASSLYSGVPSRFSGSRSGTDFTLTISSLQPEDFATYYCQQYGSYLYTFGQGTKVEIK | 110
9 | VH V99K (antibody, V domains shown) VH: EVQLVESGGGLVQPGGSLRLSCAASGFNIYYNYIHWVRQAPGKGLEWVAEFSPYSGSTYYADSVKGRFTISADTSKNTAYLQMNSLRAEDTAVYYCARSAAIKDWYDYFKGFDYWGQGTLVTVSS VL: DIQMTQSPSSLSASVGDRVTITCRASQSVSSAVAWYQQKPGKAPKLLIYSASSLYSGVPSRFSGSRSGTDFTLTISSLQPEDFATYYCQQYGSYLYTFGQGTKVEIK | 17.3
10 | VL S93D (antibody, V domains shown) VH: EVQLVESGGGLVQPGGSLRLSCAASGFNIYYNYIHWVRQAPGKGLEWVAEFSPYSGSTYYADSVKGRFTISADTSKNTAYLQMNSLRAEDTAVYYCARSAAIVDWYDYFKGFDYWGQGTLVTVSS VL: DIQMTQSPSSLSASVGDRVTITCRASQSVSSAVAWYQQKPGKAPKLLIYSASSLYSGVPSRFSGSRSGTDFTLTISSLQPEDFATYYCQQYGDYLYTFGQGTKVEIK | 1.3
11 | VH Y31L (antibody, V domains shown) VH: EVQLVESGGGLVQPGGSLRLSCAASGFNIYLNYIHWVRQAPGKGLEWVAEFSPYSGSTYYADSVKGRFTISADTSKNTAYLQMNSLRAEDTAVYYCARSAAIVDWYDYFKGFDYWGQGTLVTVSS VL: DIQMTQSPSSLSASVGDRVTITCRASQSVSSAVAWYQQKPGKAPKLLIYSASSLYSGVPSRFSGSRSGTDFTLTISSLQPEDFATYYCQQYGSYLYTFGQGTKVEIK | 2640
12 | VH Y31V (antibody, V domains shown) VH: EVQLVESGGGLVQPGGSLRLSCAASGFNIYVNYIHWVRQAPGKGLEWVAEFSPYSGSTYYADSVKGRFTISADTSKNTAYLQMNSLRAEDTAVYYCARSAAIVDWYDYFKGFDYWGQGTLVTVSS VL: DIQMTQSPSSLSASVGDRVTITCRASQSVSSAVAWYQQKPGKAPKLLIYSASSLYSGVPSRFSGSRSGTDFTLTISSLQPEDFATYYCQQYGSYLYTFGQGTKVEIK | 406

The remaining lines, values ahead:

Row | Kd [nM] | Binder
13 | 2.36 | VL Y91Q (antibody, V domains shown) VH: EVQLVESGGGLVQPGGSLRLSCAASGFNIYYNYIHWVRQAPGKGLEWVAEFSPYSGSTYYADSVKGRFTISADTSKNTAYLQMNSLRAEDTAVYYCARSAAIVDWYDYFKGFDYWGQGTLVTVSS VL: DIQMTQSPSSLSASVGDRVTITCRASQSVSSAVAWYQQKPGKAPKLLIYSASSLYSGVPSRFSGSRSGTDFTLTISSLQPEDFATYYCQQQGSYLYTFGQGTKVEIK
14 | 0.962 | VL S93N (antibody, V domains shown) VH: EVQLVESGGGLVQPGGSLRLSCAASGFNIYYNYIHWVRQAPGKGLEWVAEFSPYSGSTYYADSVKGRFTISADTSKNTAYLQMNSLRAEDTAVYYCARSAAIVDWYDYFKGFDYWGQGTLVTVSS VL: DIQMTQSPSSLSASVGDRVTITCRASQSVSSAVAWYQQKPGKAPKLLIYSASSLYSGVPSRFSGSRSGTDFTLTISSLQPEDFATYYCQQYGNYLYTFGQGTKVEIK
15 | 2.31 | VL Y91S (antibody, V domains shown) VH: EVQLVESGGGLVQPGGSLRLSCAASGFNIYYNYIHWVRQAPGKGLEWVAEFSPYSGSTYYADSVKGRFTISADTSKNTAYLQMNSLRAEDTAVYYCARSAAIVDWYDYFKGFDYWGQGTLVTVSS VL: DIQMTQSPSSLSASVGDRVTITCRASQSVSSAVAWYQQKPGKAPKLLIYSASSLYSGVPSRFSGSRSGTDFTLTISSLQPEDFATYYCQQSGSYLYTFGQGTKVEIK
16 | 0.766 | VL S93R (antibody, V domains shown) VH: EVQLVESGGGLVQPGGSLRLSCAASGFNIYYNYIHWVRQAPGKGLEWVAEFSPYSGSTYYADSVKGRFTISADTSKNTAYLQMNSLRAEDTAVYYCARSAAIVDWYDYFKGFDYWGQGTLVTVSS VL: DIQMTQSPSSLSASVGDRVTITCRASQSVSSAVAWYQQKPGKAPKLLIYSASSLYSGVPSRFSGSRSGTDFTLTISSLQPEDFATYYCQQYGRYLYTFGQGTKVEIK
17 | 0.968 | VL S93E (antibody, V domains shown) VH: EVQLVESGGGLVQPGGSLRLSCAASGFNIYYNYIHWVRQAPGKGLEWVAEFSPYSGSTYYADSVKGRFTISADTSKNTAYLQMNSLRAEDTAVYYCARSAAIVDWYDYFKGFDYWGQGTLVTVSS VL: DIQMTQSPSSLSASVGDRVTITCRASQSVSSAVAWYQQKPGKAPKLLIYSASSLYSGVPSRFSGSRSGTDFTLTISSLQPEDFATYYCQQYGEYLYTFGQGTKVEIK
18 | 5.59 | VL S93F (antibody, V domains shown) VH: EVQLVESGGGLVQPGGSLRLSCAASGFNIYYNYIHWVRQAPGKGLEWVAEFSPYSGSTYYADSVKGRFTISADTSKNTAYLQMNSLRAEDTAVYYCARSAAIVDWYDYFKGFDYWGQGTLVTVSS VL: DIQMTQSPSSLSASVGDRVTITCRASQSVSSAVAWYQQKPGKAPKLLIYSASSLYSGVPSRFSGSRSGTDFTLTISSLQPEDFATYYCQQYGFYLYTFGQGTKVEIK
19 | 1.69 | VL Y91F (antibody, V domains shown) VH: EVQLVESGGGLVQPGGSLRLSCAASGFNIYYNYIHWVRQAPGKGLEWVAEFSPYSGSTYYADSVKGRFTISADTSKNTAYLQMNSLRAEDTAVYYCARSAAIVDWYDYFKGFDYWGQGTLVTVSS VL: DIQMTQSPSSLSASVGDRVTITCRASQSVSSAVAWYQQKPGKAPKLLIYSASSLYSGVPSRFSGSRSGTDFTLTISSLQPEDFATYYCQQFGSYLYTFGQGTKVEIK
20 | 2.08 | VL Y91K (antibody, V domains shown) VH: EVQLVESGGGLVQPGGSLRLSCAASGFNIYYNYIHWVRQAPGKGLEWVAEFSPYSGSTYYADSVKGRFTISADTSKNTAYLQMNSLRAEDTAVYYCARSAAIVDWYDYFKGFDYWGQGTLVTVSS VL: DIQMTQSPSSLSASVGDRVTITCRASQSVSSAVAWYQQKPGKAPKLLIYSASSLYSGVPSRFSGSRSGTDFTLTISSLQPEDFATYYCQQKGSYLYTFGQGTKVEIK
21 | 2.55 | VL Y94W (antibody, V domains shown) VH: EVQLVESGGGLVQPGGSLRLSCAASGFNIYYNYIHWVRQAPGKGLEWVAEFSPYSGSTYYADSVKGRFTISADTSKNTAYLQMNSLRAEDTAVYYCARSAAIVDWYDYFKGFDYWGQGTLVTVSS VL: DIQMTQSPSSLSASVGDRVTITCRASQSVSSAVAWYQQKPGKAPKLLIYSASSLYSGVPSRFSGSRSGTDFTLTISSLQPEDFATYYCQQYGSWLYTFGQGTKVEIK
22 | 2.91 | VL S93K (antibody, V domains shown) VH: EVQLVESGGGLVQPGGSLRLSCAASGFNIYYNYIHWVRQAPGKGLEWVAEFSPYSGSTYYADSVKGRFTISADTSKNTAYLQMNSLRAEDTAVYYCARSAAIVDWYDYFKGFDYWGQGTLVTVSS VL: DIQMTQSPSSLSASVGDRVTITCRASQSVSSAVAWYQQKPGKAPKLLIYSASSLYSGVPSRFSGSRSGTDFTLTISSLQPEDFATYYCQQYGKYLYTFGQGTKVEIK
